From the DeepSol protein solubility set

Test: soluble on expression in E. coli; label from the status in PepcDB or PDB records

Soluble on expression in E. coli, not soluble:
SARGRKMSKPRAVEAAAAAAAVAATAPGPEMVERRGPGRPRTDGENVFTGQSKIYSYMSPNKCSGMRFPLQEENSVTHHEVKCQGKPLAGIYRKREEKRNAGNAVRSAMKSEEQKIKDARKGPLVPFPNQKSEAAEPPKTPPSSCDSTNAAIAKQALKKPIKGKQAPRKKAQGKTQQNRKLTDFYPVRRSSRKSKAELQSEERKRIDELIESGKEEGMKIDLIDGKGRGVIATKQFSRGDFVVEYHGDLIEITDAKKREALYAQDPSTGCYMYYFQYLSKTYCVDATRETNRLGRLINHSKCGNCQTKLHDIDGVRHLILIASRDIAAGEELLYDYGDRSKASIEAHPWLKH
MAIVDPIVTGLNAGWLHTDASQLQANQQFEADVVIVGTGAGGGVAAEILTQAGLSVIMIEAGPLKSSSDFNMEERVAYPNLYQQAAAMKTADKAIGIFQGRAVGGSTTINWTTSIRTPKEALAFWAQHKSVAGLDPEALAPWFDQMEQRLNIHEWNYEPNRNNGALKQGCINLGWDYTVIKRNVAGCWNTGYCGMGCPVNAKQSMLVTTIPSALEKGAQLISRAKVVKIEHHNGQVFALKAQALDVNLRPTAVELLFKAKHYILSAGAIHTPTLMMRSEVPDPHQLLGKRTFLHPTVLSGGVFADTINAHSGAPQSIYSDEFVWKNGADGELGYKLEVPPVHPILIASKTIGYGVSHAELMAQFNQLQVTIALIRDGYHPDSQGGQVHLTPTGFSLDYPLTDAFWRAVRRAYASMAELQFSAGALKVLPISDGMPYLSSWKEAKESIAQMDLAPLKTVVASAHVMGGCPLGEDEKLSMVNSYGQSHYLNNLSVMDGSIFPTSLGANPQLSIYGITARNATALAQKLKDGREPQLEHHHHHH
MGHHHHHHSHMFLQYYLNEQGDRVYTLKKFDPMGQQTCSAHPARFSPDDKYSRHRITIKKRFKVLMTQQPRPVL

Soluble on expression in E. coli, soluble:
SLQTNKASTGLKTDQSFNNSLSESVKLKEIADIYPTNTNFLTGIGIVAGLAGKGDSIKQKDLIIKILEENNIINEIGSNNIESKNIALVNVSLQVKGNTIKGSKHKACVASILDSKDLTNGILLKTNLKNKEGEIIAIASGITQPNNKLKGSGYTIDSVIINENQNINHSYNIILKKGNYTLINRIHKILTSKKINNKIKSDSTIEIEAKNISLLEEIENIKIETNPKILIDKKNGIILASENAKIGTFTFSIEKDNQNIFLSKNNKTTIQVNSMKLNEFILKNSNNLSNKELIQIIQAAQKINKLNGELILEEIDGNQN
MSLRILYLDPFSGISGDMFLGLLVDLGVDPEKIKSRLEKLNVEFDLVVKKVNKKGVTATKVDVVFPRKEHHEDHIVSDHDHHHHHGRHLSEIVEVLSRLEDPLKEKAIRMFEALAEAESKIHGLSKEKVHFHEVGAMDAVIEIAGAVVGLELLEVEKVFCGTVNTGSGFVMTEHGRYPVPAPATAELLKGIPIYMDQKVRAELVTPTGAVILKILVDEFRTPILRVEKVGYGAGTMDLEIPNVLRGYLGYIEPSERTGDVLIETNVDDMNPQLFGHLMERLFEAGAKDVFFTPIYMKKNRPAVKVSVLCHESKKDEILKLLFKESTSIGARVFYPEKVEATRTLKTVKTEYGEIPVKIASFDSEIVNISPEYEACKKVAQEKGIPLKEVYRAVYKSVSEVRNDVEGHHHHHH
MTHATVTQTVHYHNGETGGQMQADTTNEVNFDRTVTIDTVTGEITHYGDWEADGDDYFKGFDSPTFDGYFADVQHTGEVKGVDPEQGTVDDVTITYYALEHHHHHH
NIGSGTDEKTATARAKVVDWCNELVIASPSTKCELLAKVQETVLGSCAELAEEFLESVLSLAHDSNMEVRKQVVAFVEQVCKVKVELLPHVINVVSMLLRDNSAQVIKRVIQACGSIYKNGLQYLCSLMEPGDSAEQAWNILSLIKAQILDMIDNENDGIRTNAIKFLEGVVVLQSFADEDSLKRDGDFSLADVPDHCTLFRREKLQEEGNNILDILLQFHGTTHISSVNLIACTSSLCTIAKMRPIFMGAVVEAFK
MKPICIIPARSGSKGLPDKNMLFLSGKPMIFHTIDAAIESGMFDKKDIFVSTDSELYREICLERGISVVMRKPELSTDQATSYDMLKDFLSDYEDNQEFVLLQVTSPLRKSWHIKEAMEYYSSHDVDNVVSFSEVEKHPSLFTTLSDEGYAIDMVGADKGYRRQDLQPLYYPNGAIFISNKETYLREKSFFTSRTYAYQMAKEFSLDVDTRDDFIHVIGHLFFDYAIREKENKVFYKEGYSRLFNREASKIILGDSKTISTSLESYHNYSQGGVTLATMLENLPNFLTANVTEAFVSIGVNDLITGYSVEEIFSNFQKLYSLLAENKIKMRLTTIAYTLFRETVNNADIEKINQWLTEFCYQNQIPLLDINRFLSKDGNLNYHLTSDGLHFTQEANDLLQSQYQLFVDEVKTLLEHHHHHH
